Article PMC11779899 (Nature Communications, 2025)

Columns and labels:
[1] = biological target: Full-length WT-IrtAB heterodimer reconstituted in nanodiscs (Mycolicibacterium thermoresistibile …, UniProt G7CBF5;G7CBF6); assay: cryo-EM structure
[2] = biological target: T1, WT-IrtABΔSID heterodimer in LMNG (Mycolicibacterium thermoresistibile …, point mutant); assay: cryo-EM structure
T1 chain 1: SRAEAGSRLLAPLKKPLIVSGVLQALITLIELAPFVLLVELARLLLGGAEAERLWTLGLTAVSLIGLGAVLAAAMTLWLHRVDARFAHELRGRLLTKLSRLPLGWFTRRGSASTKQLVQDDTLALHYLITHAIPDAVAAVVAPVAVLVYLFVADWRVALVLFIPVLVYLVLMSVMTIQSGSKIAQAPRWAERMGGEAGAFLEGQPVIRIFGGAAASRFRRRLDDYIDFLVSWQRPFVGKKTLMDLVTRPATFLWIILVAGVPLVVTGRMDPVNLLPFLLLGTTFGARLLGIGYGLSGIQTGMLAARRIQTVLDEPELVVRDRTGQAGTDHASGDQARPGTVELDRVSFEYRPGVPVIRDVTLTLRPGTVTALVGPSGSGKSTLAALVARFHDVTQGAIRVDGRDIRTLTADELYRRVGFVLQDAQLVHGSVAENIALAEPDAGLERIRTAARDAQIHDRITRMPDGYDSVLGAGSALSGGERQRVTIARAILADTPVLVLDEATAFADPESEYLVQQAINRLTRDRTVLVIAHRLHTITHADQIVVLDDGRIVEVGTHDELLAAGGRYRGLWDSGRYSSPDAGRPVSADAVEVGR
T1 chain 2: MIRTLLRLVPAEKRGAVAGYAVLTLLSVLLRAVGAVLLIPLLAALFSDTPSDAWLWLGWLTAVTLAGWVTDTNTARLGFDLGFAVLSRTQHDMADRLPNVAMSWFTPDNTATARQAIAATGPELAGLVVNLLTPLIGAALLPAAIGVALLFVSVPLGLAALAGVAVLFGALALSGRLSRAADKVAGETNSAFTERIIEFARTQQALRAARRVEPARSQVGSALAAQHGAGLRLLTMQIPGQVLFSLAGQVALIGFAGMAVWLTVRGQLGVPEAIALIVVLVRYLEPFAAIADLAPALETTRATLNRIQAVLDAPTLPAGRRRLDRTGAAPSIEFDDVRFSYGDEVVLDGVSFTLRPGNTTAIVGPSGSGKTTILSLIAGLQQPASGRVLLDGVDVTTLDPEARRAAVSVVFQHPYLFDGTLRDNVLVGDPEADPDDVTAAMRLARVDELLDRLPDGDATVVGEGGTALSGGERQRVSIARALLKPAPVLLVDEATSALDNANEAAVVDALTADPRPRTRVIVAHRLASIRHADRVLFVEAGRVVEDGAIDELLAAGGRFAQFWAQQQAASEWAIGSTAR

B1: IrtAB-specific sybody SybNL5 (VHH)
VHH: QVQLVESGGGLVQAGGSLRLSCAASGFPVSSSTMTWYRQAPGKEREWVAAINSYGYYTVYADSVKGRFTISRDNAKNTVYLQMNSLKPEDTAVYYCNVKDTGQMRESYDYWGQGTQVTVSA
Question: Which results are given for B1?
Answer: binding result [1]: binds; binding result [2]: binds
